Source: patent US20240131155A1, “T CELLS FOR USE IN THERAPY” (Erasmus University Medical Center Rotterdam, priority 2021, published 2024)

What was measured:
[1] = target: T1, HLA-A2 (HLA-A2:01) on T2 cells (human); assay: HLA-A2 stabilization assay on T2 cells (anti-HLA-A2-PE, flow cytometry), single peptide concentration 25 ug/mL [panel E]
T1 construct: detected with anti-HLA-A2 mAb BB7.2

[2] = target: T1, HLA-A2 (HLA-A2:01) on T2 cells; assay: HLA-A2 stabilization assay on T2 cells, peptide titration; amplitude relative to that of reference peptide YLE; EC50 cell is 'x' [panel D]
[3] = target: T1, HLA-A2 (HLA-A2:01) on T2 cells; assay: HLA-A2 stabilization assay on T2 cells (anti-HLA-A2-PE, flow cytometry), single peptide concentration [panel D]
[4] = target: MLN epitope (…) presented by HLA-A2 on cells (human); assay: cell-based or functional assay
[5] = target: T1, HLA-A2 (HLA-A2:01) on T2 cells; assay: HLA-A2 stabilization assay on T2 cells (anti-HLA-A2-PE, flow cytometry), single peptide concentration [panel C; D00007 Figure 3 continued, panel E]
[6] = target: T2, ROPN1B peptide on HLA-A*02:01 (human); assay: multimer staining
T2 peptide: MLNYIEQEV

[7] = target: T3, ROPN1 (counterpart of the ROPN1B MLN epitope, one residue different) peptide on HLA-A*02:01 (human); assay: cytokine release
T3 peptide: MLNYMEQEV

[8] = target: T4, ROPN1B epitope 1 (MLN) with alanine at position 8 peptide on HLA-A*02:01 (human); assay: cytokine release
T4 peptide: MLNYIEQAV

[9] = target: T5, gp100 peptide on HLA-A*02:01 (human); assay: cytokine release
T5 peptide: YLEPGPVTA

[10] = target: T6, ROPN1B epitope 1 (MLN) with alanine at position 9 peptide on HLA-A*02:01 (human); assay: cytokine release
T6 peptide: MLNYIEQEA

[11] = target: T7, ROPN1B epitope 1 (MLN) with alanine at position 6 peptide on HLA-A*02:01 (human); assay: cytokine release
T7 peptide: MLNYIAQEV

[12] = target: T1, HLA-A2 (HLA-A2:01) on T2 cells; assay: HLA-A2 stabilization assay on T2 cells, peptide titration; amplitude relative to that of reference peptide YLE [panel D]
[13] = target: T1, HLA-A2 (HLA-A2:01) on T2 cells; assay: HLA-A2 stabilization assay on T2 cells, peptide titration; EC50 calculated with GraphPad [panel E]
[14] = target: T1, HLA-A2 (HLA-A2:01) on T2 cells; assay: HLA-A2 stabilization assay on T2 cells, peptide titration; amplitude = highest data point corrected for baseline [panel E]
[15] = target: T1, HLA-A2 (HLA-A2:01) on T2 cells; assay: HLA-A2 stabilization assay on T2 cells, peptide titration; EC50 calculated with GraphPad [panel D]

Q: Which results are given for YIAEVDGEI (ROPN1B, predicted)?
A: Minimum stability [1]: 1.16 fold change over baseline; Amplitude [2]: 0.939 relative to YLE; Minimum stability [3]: 1.41 fold change over baseline

B1: MLN-TCR2 (epitope 1 (MLN)-specific TCR) (TCR, V domains shown)
V domain 1: RGEDVEQSLFLSVREGDSSVINCTYTDSSSTYLYWYKQEPGAGLQLLTYIFSNMDMKQDQRLTVLLNKKDKHLSLRIADTQTGDSAIYFCAEDGGGSYIPTFGRGTSLIVHP
V domain 2: EAGVTQFPSHSVIEKGQTVTLRCDPISGHDNLYWYRRVMGKEIKFLLHFVKESKQDESGMPNNRFLAERTGGTYSTLKVQPAELEDSGVYFCASSPGPGQNSPLHFGNGTRLTVTE
Q: For B1, which “EC50 of T cell IFN-gamma production, peptide titration on BSM cells” value [4] is on record?
A: 0.011 µM

Q: How did the Minimum stability [1] turn out when RLIIRAEEL (ROPN1 and ROPN1B, predicted) was run?
A: 0.91 fold change over baseline

Q: Does RLIIRAEEL (ROPN1 and ROPN1B, predicted) bind [5]?
A: no binding (tested: 25 ug/mL)

Q: What about the Minimum stability [3] of the same binder?
A: 0.91 fold change over baseline

B2: MLN-TCR2 (TCR, V domains shown)
Valpha: GEDVEQSLFLSVREGDSSVINCTYTDSSSTYLYWYKQEPGAGLQLLTYIFSNMDMKQDQRLTVLLNKKDKHLSLRIADTQTGDSAIYFCAEDGGGSYIPTFGRGTSLIVHP
Vbeta: EAGVTQFPSHSVIEKGQTVTLRCDPISGHDNLYWYRRVMGKEIKFLLHFVKESKQDESGMPNNRFLAERTGGTYSTLKVQPAELEDSGVYFCASSPGPGQNSPLHFGNGTRLTVT
Q: Does B2 bind [6]?
A: recognises

Q: Does B2 bind [7]?
A: no recognition

Q: Does B2 bind [8]?
A: recognises

Q: Does B2 bind [9]?
A: no recognition

Q: Does B2 bind [10]?
A: recognises

Q: Does B2 bind [11]?
A: recognises

Q: How did the Amplitude [12] turn out when SLLMWITQV (also called NY-ESO peptide SLL) [NY-ESO1 peptide SLLMWITQV] was run?
A: 0.93 relative to YLE

Q: What about the EC50 [13] of the same binder?
A: 5.08 µM

Q: And the Amplitude [14]?
A: 4220 geometric mean normalized to baseline

Q: What about the EC50 [15] of the same binder?
A: 5.08 µM
